The target of this assay is His6-BacA_(F134R), purified (Asticcacaulis biprosthecum). Put plainly: SEC; 500 μl of purified protein from the polymerization assay (Buffer C) on Superdex 200 Increase 10/300 GL, calibrated with standard proteins.

This is an account of results in doi:10.1101/2024.12.16.628611.

The substance “His6-BacA_(F134R), purified (natural protein)” had a stoichiometry N of 2.
